What was measured:
HLA-B*08:01 [1] = assay: IEDB peptide-MHC binding, purified MHC/competitive/fluorescence; filed as Kd, often an IC50 or EC50 that approximates it; ≥ and ≤ were set here for values at or beyond the usual limits of such assays
HLA-A*02:01 [2] = assay: as above
HLA-A*02:03 = assay: as above; conditions: source organism: Salmonella enterica subsp. enterica serovar Typhi
HLA-A*02:11 = assay: as above; conditions: source organism: Salmonella enterica subsp. enterica serovar Typhi
HLA-A*02:12 [3] = assay: as above; conditions: source organism: Salmonella enterica subsp. enterica serovar Typhi
HLA-A*02:16 [4] = assay: as above
HLA-A*02:19 = assay: as above; conditions: source organism: Salmonella enterica subsp. enterica serovar Typhi
HLA-A*03:01 [5] = assay: as above; conditions: source organism: Salmonella enterica subsp. enterica serovar Typhi
HLA-A*26:01 [6] = assay: as above; conditions: source organism: Salmonella enterica subsp. enterica serovar Typhi
HLA-A*68:02 = assay: as above; conditions: source organism: Salmonella enterica subsp. enterica serovar Typhi
HLA-A*69:01 [7] = assay: as above; conditions: source organism: Salmonella enterica subsp. enterica serovar Typhi
HLA-B*15:01 [8] = assay: as above
HLA-B*18:01 = assay: as above; conditions: source organism: Salmonella enterica subsp. enterica serovar Typhi
HLA-B*27:03 = assay: as above; conditions: source organism: Salmonella enterica subsp. enterica serovar Typhi
HLA-B*39:01 = assay: as above; conditions: source organism: Salmonella enterica subsp. enterica serovar Typhi
HLA-B*46:01 = assay: as above; conditions: source organism: Salmonella enterica subsp. enterica serovar Typhi
HLA-B*51:01 = assay: as above; conditions: source organism: Salmonella enterica subsp. enterica serovar Typhi
HLA-B*57:01 = assay: as above; conditions: source organism: Salmonella enterica subsp. enterica serovar Typhi
HLA-A*02:01 [9] = assay: IEDB peptide-MHC binding, purified MHC/direct/fluorescence; filed as Kd, often an IC50 or EC50 that approximates it; ≥ and ≤ were set here for values at or beyond the usual limits of such assays
HLA-A*02:12 [10] = assay: as above; conditions: source organism: Vibrio vulnificus CMCP6
HLA-A*02:16 [11] = assay: as above; conditions: source organism: Vibrio vulnificus CMCP6
HLA-A*69:01 [12] = assay: as above
HLA-C*05:01 = assay: as above
HLA-A*02:50 = assay: IEDB peptide-MHC binding, purified MHC/competitive/fluorescence; filed as Kd, often an IC50 or EC50 that approximates it; ≥ and ≤ were set here for values at or beyond the usual limits of such assays
HLA-A*01:01 = assay: IEDB peptide-MHC binding, purified MHC/direct/fluorescence; filed as Kd, often an IC50 or EC50 that approximates it; ≥ and ≤ were set here for values at or beyond the usual limits of such assays
HLA-A*03:01 [13] = assay: as above
HLA-A*11:01 = assay: as above
HLA-A*24:03 = assay: as above
HLA-A*26:01 [14] = assay: as above
HLA-A*30:01 = assay: as above
HLA-A*31:01 = assay: as above
HLA-B*08:01 [15] = assay: as above
HLA-B*15:01 [16] = assay: as above
HLA-B*27:05 = assay: as above
HLA-B*35:01 [17] = assay: as above
HLA-B*40:01 = assay: as above
HLA-B*44:02 = assay: as above
HLA-B*58:01 [18] = assay: as above
HLA-B*07:02 = assay: as above
HLA-C*03:03 = assay: as above; conditions: source organism: Escherichia coli O139:H28 str. E24377A
HLA-B*35:01 [19] = assay: IEDB peptide-MHC binding, purified MHC/competitive/fluorescence; filed as Kd, often an IC50 or EC50 that approximates it; ≥ and ≤ were set here for values at or beyond the usual limits of such assays; conditions: source organism: Escherichia coli O139:H28 str. E24377A
HLA-B*58:01 [20] = assay: as above; conditions: source organism: Escherichia coli O139:H28 str. E24377A
[21] = source organism: Escherichia coli O139:H28 str. E24377A
[22] = source organism: Salmonella enterica subsp. enterica serovar Typhi
[23] = source organism: Francisella tularensis subsp. holarctica OSU18
[24] = source organism: Vibrio vulnificus
[25] = source organism: Vibrio vulnificus YJ016
[26] = source organism: Vibrio cholerae
[27] = source organism: Coxiella burnetii
[28] = source organism: Serratia marcescens

**Q.** With DLLKPNYAL as the sequence, how does the Kd (HLA-B*08:01 [1]; [21]) read?
**A.** 4.02 µM

**Q.** What does the source list for KTVRYWHRF?
**A.** Kd (HLA-A*02:01 [2]; [22]): ≥ 20 µM; Kd (HLA-A*02:03): ≥ 20 µM; Kd (HLA-A*02:11): ≥ 20 µM; Kd (HLA-A*02:12 [3]): ≥ 20 µM; Kd (HLA-A*02:16 [4]; [22]): ≥ 20 µM; Kd (HLA-A*02:19): ≥ 20 µM; Kd (HLA-A*03:01 [5]): ≥ 20 µM; Kd (HLA-A*26:01 [6]): ≥ 20 µM; Kd (HLA-A*68:02): ≥ 20 µM; Kd (HLA-A*69:01 [7]): ≥ 20 µM; Kd (HLA-B*15:01 [8]; [22]): ≥ 20 µM; Kd (HLA-B*18:01): ≥ 20 µM; Kd (HLA-B*27:03): ≥ 20 µM; Kd (HLA-B*39:01): ≥ 20 µM; Kd (HLA-B*46:01): ≥ 20 µM; Kd (HLA-B*51:01): ≥ 20 µM; Kd (HLA-B*57:01): 0.0403 µM

**Q.** Which Kd (HLA-B*08:01 [1]; source organism: Influenza A virus (A/Tokyo/1566/98(H3N2))) does the source give for QLKYKYPAL here?
**A.** 0.0679 µM

**Q.** Which results are given for FGLLPEHYV?
**A.** Kd (HLA-A*02:01 [2]; [23]): 0.12 µM; Kd (HLA-A*02:16 [4]; [23]): 0.0601 µM

**Q.** How did the Kd (HLA-A*02:01 [9]; [24]) turn out when MSDWGHITV was run?
**A.** 0.276 µM

**Q.** And the Kd (HLA-A*02:12 [10])?
**A.** 0.056 µM

**Q.** And the Kd (HLA-A*02:16 [11])?
**A.** 0.029 µM

**Q.** What about the Kd (HLA-A*69:01 [12]; [24]) of the same sequence?
**A.** ≤ 0.001 µM

**Q.** What about the Kd (HLA-C*05:01; [25]) of the same sequence?
**A.** ≤ 0.001 µM

**Q.** What about the Kd (HLA-A*02:50; [25]) of the same sequence?
**A.** 0.0098 µM

**Q.** Which results are given for VNGVKGIQF?
**A.** Kd (HLA-A*01:01; [24]): ≥ 20 µM; Kd (HLA-A*02:01 [9]; [24]): ≥ 20 µM; Kd (HLA-A*03:01 [13]; [24]): ≥ 20 µM; Kd (HLA-A*11:01; [24]): ≥ 20 µM; Kd (HLA-A*24:03; [24]): ≥ 20 µM; Kd (HLA-A*26:01 [14]; [24]): ≥ 20 µM; Kd (HLA-A*30:01; [24]): ≥ 20 µM; Kd (HLA-A*31:01; [24]): ≥ 20 µM; Kd (HLA-A*69:01 [12]; [24]): ≥ 20 µM; Kd (HLA-B*08:01 [15]; [24]): ≥ 20 µM; Kd (HLA-B*15:01 [16]; [24]): ≥ 20 µM; Kd (HLA-B*27:05; [24]): ≥ 20 µM; Kd (HLA-B*35:01 [17]; [24]): 1 µM; Kd (HLA-B*40:01; [24]): ≥ 20 µM; Kd (HLA-B*44:02; [24]): ≥ 20 µM; Kd (HLA-B*58:01 [18]; [24]): ≥ 20 µM

**Q.** FPRSAERAG was tested. Which Kd (HLA-A*01:01; [26]) did it give?
**A.** ≥ 20 µM

**Q.** What about the Kd (HLA-A*02:01 [9]; [26]) of the same sequence?
**A.** ≥ 20 µM

**Q.** What about the Kd (HLA-A*03:01 [13]; [26]) of the same sequence?
**A.** ≥ 20 µM

**Q.** What about the Kd (HLA-A*11:01; [26]) of the same sequence?
**A.** ≥ 20 µM

**Q.** What about the Kd (HLA-A*24:03; [26]) of the same sequence?
**A.** ≥ 20 µM

**Q.** What about the Kd (HLA-A*26:01 [14]; [26]) of the same sequence?
**A.** ≥ 20 µM

**Q.** And the Kd (HLA-A*30:01; [26])?
**A.** ≥ 10 µM

**Q.** And the Kd (HLA-A*31:01; [26])?
**A.** ≥ 20 µM

**Q.** What about the Kd (HLA-A*69:01 [12]; [26]) of the same sequence?
**A.** ≥ 20 µM

**Q.** And the Kd (HLA-B*07:02; [26])?
**A.** 0.201 µM

**Q.** And the Kd (HLA-B*08:01 [15]; [26])?
**A.** ≥ 20 µM

**Q.** What about the Kd (HLA-B*15:01 [16]; [26]) of the same sequence?
**A.** ≥ 20 µM

**Q.** And the Kd (HLA-B*27:05; [26])?
**A.** ≥ 20 µM

**Q.** What about the Kd (HLA-B*35:01 [17]; [26]) of the same sequence?
**A.** 0.0434 µM

**Q.** What about the Kd (HLA-B*40:01; [26]) of the same sequence?
**A.** ≥ 20 µM

**Q.** And the Kd (HLA-B*44:02; [26])?
**A.** ≥ 20 µM

**Q.** What about the Kd (HLA-B*58:01 [18]; [26]) of the same sequence?
**A.** ≥ 20 µM

**Q.** Which results are given for SYGNANVSF?
**A.** Kd (HLA-A*01:01; [27]): 1.81 µM; Kd (HLA-A*02:01 [9]; [27]): ≥ 20 µM; Kd (HLA-A*03:01 [13]; [27]): ≥ 20 µM; Kd (HLA-A*11:01; [27]): ≥ 5 µM; Kd (HLA-A*26:01 [14]; [27]): ≥ 20 µM; Kd (HLA-A*31:01; [27]): ≥ 20 µM; Kd (HLA-A*69:01 [12]; [27]): ≥ 20 µM; Kd (HLA-B*07:02; [27]): ≥ 20 µM; Kd (HLA-B*08:01 [15]; [27]): ≥ 20 µM; Kd (HLA-B*15:01 [16]; [27]): 1.14 µM; Kd (HLA-B*27:05; [27]): ≥ 20 µM; Kd (HLA-B*35:01 [17]; [27]): 0.264 µM; Kd (HLA-B*40:01; [27]): ≥ 20 µM; Kd (HLA-B*44:02; [27]): ≥ 20 µM; Kd (HLA-B*58:01 [18]; [27]): ≥ 20 µM

**Q.** Which results are given for YALATQVEF?
**A.** Kd (HLA-C*03:03): ≤ 0.001 µM; Kd (HLA-C*05:01; [21]): 2.65 µM; Kd (HLA-B*08:01 [1]; [21]): 3.72 µM; Kd (HLA-B*15:01 [8]; [21]): 0.0413 µM; Kd (HLA-B*35:01 [19]): ≤ 0.0001 µM; Kd (HLA-B*58:01 [20]): 0.0045 µM

**Q.** What does the source list for LIPDGDGEV?
**A.** Kd (HLA-A*01:01; [28]): ≥ 20 µM; Kd (HLA-A*02:01 [9]; [28]): ≥ 20 µM; Kd (HLA-A*03:01 [13]; [28]): ≥ 20 µM; Kd (HLA-A*26:01 [14]; [28]): ≥ 20 µM; Kd (HLA-A*31:01; [28]): ≥ 20 µM; Kd (HLA-A*69:01 [12]; [28]): ≥ 20 µM; Kd (HLA-B*07:02; [28]): ≥ 20 µM; Kd (HLA-B*08:01 [15]; [28]): ≥ 20 µM; Kd (HLA-B*15:01 [16]; [28]): ≥ 20 µM; Kd (HLA-B*27:05; [28]): ≥ 20 µM; Kd (HLA-B*40:01; [28]): ≥ 20 µM; Kd (HLA-B*58:01 [18]; [28]): ≥ 20 µM; Kd (HLA-A*02:50; [28]): 0.0017 µM

From the Immune Epitope Database (IEDB)
